Assay results reported in paper PMC11448073 (Microbiology Spectrum, 2024).

B1: human anti-F1 monoclonal antibody αF1Ig8 (antibody, V domains shown)
VH: QVQLQQWGAGLLKPSETLSLTCAVYGGSFSGYYWSWIRQPPGKGLEWIGEINHSGNTNYNPSLKSRVTISVDTSKNQFSLQLNSVTPEDTAVYYCARTRGYFDLWGRGTLVTVSS
VL: DIRMTQSPSSLSASVGDRVTITCRASQSISSYLNWYQQKPGKAPKLLIYATSSLQSGVPSRFSGSGSGTDFTLTISSLQFEDFATYYCQQSYSTPSSFGQGTKVDIK
notes: source: EXPi293F, synthesized expression plasmids
B2: human monoclonal antibody F19 (antibody, V domains shown)
VH: EVQLLESGGGVVQPGGSLRLSCAASGFTFDDYAMHWVRQVPGKGLEWVSLISGDGGSTSYADSVKGRFTISRDNSKNSLYLQMSSLRTEDTALYYCAKDRGRAWIDYWGQGTLVTVSS
VL: not shown
notes: also called HRP-conjugated F19; source: Expi293F, cotransfected heavy and light chain plasmids, purified (Protein A); copies: 2 + 2
B3: human monoclonal antibody F3 (antibody, V domains shown)
VH: EVQLLESGGGVVQPGRSLRLSCAASGFTFSRYGMHWVRQAPGKGLEWVAVISHDGNIKYYGDSVKGRFTISRDNSKNTLYLQMNSLRVEDTAVYYCAKDRGKFDSWGQGTLVTVSS
VL: not shown
notes: also called F3-HRP; source: Expi293F, cotransfected heavy and light chain plasmids, purified (Protein A); copies: 2 + 2
B4: human monoclonal antibody F23 (antibody, V domains shown)
VH: EVQLLESGGGVVQPGRSLRLSCAASGFTFSSYAMHWVRQAPGKGLEWVAAILYDGSNKNYADSVKGRFTISRDNSKNTLYLQMNSLRAEDTAVYYCARGTPAMVRGVIGPLFEHWGQGTLVTVSS
VL: DIQMTQSPDSLAVALGERATINCKSSQSVLYTSNNKNYLAWYQKKPGQPPKLLIYWASTRESGVPDRFSGSGSGTDFTLTISSLQPEDVAVYYCQQYFILPRTFGQGTKLEIK
notes: also called HRP-conjugated F23; source: Expi293F, cotransfected heavy and light chain plasmids, purified (Protein A); copies: 2 + 2

What was measured:
[1] = biological target: fraction 1 capsular antigen (F1) of Yersinia pestis (Yersinia pestis EV strain, UniProt P26948); assay: ELISA; settings: both partners purified
[2] = biological target: fraction 1 capsular antigen (F1) of Yersinia pestis (Yersinia pestis EV strain, UniProt P26948); assay: BLI; settings: both partners purified
[3] = biological target: T1, SARS-CoV-2 nucleocapsid protein (N) (SARS-CoV-2, strain , UniProt P0DTC9); assay: ELISA
T1 construct: also called SARS-CoV-2 NPs

Row | Binder | binding result [1] | Kd [2] [pM] | binding result [3]
1 | B1 | binds | – | –
2 | B2 | – | 165 | no binding
3 | B3 | – | – | no binding
4 | B4 | – | – | no binding
